Residue numbers refer to the chain shown, from its start. Names and notes keep the numbering of the source. Values joined by “and” are separate entries in the source; they are usually repeats but may differ in a detail not shown here. Equal entries are not always repeated.
How the values were obtained:
[1] = target: T1, monovalent hVISTA-ECD (human VISTA extracellular domain with His tail) (human, UniProt Q9H7M9 33-193); experiment: SPR, pH 6.0
T1 construct: analyte flowed over captured antibody; also called huVISTA-His

[2] = target: T2, cyno VISTA-ECD (cynomolgus VISTA extracellular domain with His tail) (cynomolgus macaque, UniProt Q9H7M9 33-193 (human entry)); experiment: SPR, pH 6.0
T2 construct: also called cyVISTA-His
T2 chain: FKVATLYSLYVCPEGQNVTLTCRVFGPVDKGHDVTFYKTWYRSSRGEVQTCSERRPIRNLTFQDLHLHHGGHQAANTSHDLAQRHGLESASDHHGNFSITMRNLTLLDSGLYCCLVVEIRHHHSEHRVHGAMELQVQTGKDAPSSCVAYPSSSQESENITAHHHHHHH

[3] = target: T1, monovalent hVISTA-ECD (human VISTA …); experiment: SPR, pH 7.4
[4] = target: T2, cyno VISTA-ECD (cynomolgus VISTA …); experiment: SPR, pH 7.4
[5] = target: T1, monovalent hVISTA-ECD (human VISTA …); experiment: SPR, pH 7.4; remark: listed apart in the source
Experimental: (§1) Binding of several preparations of each of the '029 progeny clones and of the parent '029 antibodies, formatted as IgG1.3 antibodies, to human VISTA at pH 6.0 and 7.4 was measured by Surface plasmon resonance (SPR). SPR analysis was performed to measure koff and KD binding affinity measurements for VISTA Abs at acidic and neutral pHs using a Biacore® T100 instrument (GE Healthcare). Protein A (ThermoFisher Scientific catalog #21181) was diluted to 20 ug/ml in 10 mM sodium acetate pH 4.5 and immobilized onto flow cells of a CM5 biosensor following the manufacturer's amine coupling protocol (GE Healthcare), targeting 2,000 RU immobilization density of Protein A per flow cell. SPR experiments were conducted at 37° C. using PBST (137 mM sodium chloride, 2.7 mM potassium chloride, 10 mM phosphate buffer, 0.05% Tween® 20) running buffer at pH 7.4 and 6.0. Antibodies were diluted to 25 nM in PBST pH 7.4, and were captured across active biosensor flow cells at 5 ul/min for 60 seconds. […] Two 15 second injections of 10 mM glycine pH 1.5 were used to regenerate the Protein A capture surface between assay cycles. Rate constants ka (kₒₙ) and kd (koff) were derived from reference flow cell and 0 nM blank-subtracted sensorgrams, and were fit to a 1:1 binding model in Biacore® T200 Evaluation Software v.2.0. The affinity constant, KD was calculated as the ratio of rate constants koff/kₒₙ for each VISTA antibody.

[6] = target: T1, monovalent hVISTA-ECD (human VISTA …); experiment: SPR, pH 7.4, average
Experimental: as §1
Some of the VISTA.4 mutants described above and new mutants were tested for binding to hVISTA, according to the methods described in Example 9. […] Antibody 41F11_VH_T28P/Y50W/S55E/D95H/L96E/P97E/Y100E; VK_A64G (P1-070976) is the only VISTA.4 derivative that is pH selective.

[7] = target: T1, monovalent hVISTA-ECD (human VISTA …); experiment: SPR, pH 6.0, average
Experimental: as §1, with “antibody. […]” for “antibody.”

[8] = target: T1, monovalent hVISTA-ECD (human VISTA …); experiment: SPR
[9] = target: T1, monovalent hVISTA-ECD (human VISTA …); experiment: SPR; remark: listed apart in the source
Experimental: as §1

[10] = target: T1, monovalent hVISTA-ECD (human VISTA …); experiment: SPR, pH 7.4; remark: listed apart in the source
Experimental: as §1
(§2) This initial campaign led to pH-independent VISTA.4 variants with near equivalent koff at pH 6 and pH 7. In order to obtain an antibody that binds to hVISTA with high affinity at pH 6.0 and low affinity at pH 7.0, a new library based on consensus sequence of pH-independent VISTA.4 variants was designed and constructed, with amino acid residues in the loops substituted for charge amino acid residues (see Example 9), and screened via yeast surface display (see Example 9). The library was analyzed as previously described (see Example 9) and selected variants were reformatted as IgG1.3 for further analysis (Tables 26 and 27). SPR analysis was conducted on these variants using the conditions previously described in Example 9.

[11] = target: T1, monovalent hVISTA-ECD (human VISTA …); experiment: SPR, pH 7.4; remark: listed apart in the source
[12] = target: T1, monovalent hVISTA-ECD (human VISTA …); experiment: SPR, pH 6.0; remark: listed apart in the source
[13] = target: T1, monovalent hVISTA-ECD (human VISTA …); experiment: SPR, pH 6.0; remark: listed apart in the source
Experimental: as §1, §2

[14] = target: T1, monovalent hVISTA-ECD (human VISTA …); experiment: SPR, pH 6.0; remark: listed apart in the source
Experimental: as §1

[15] = target: BSA (Calbiochem catalog #126593) (UniProt P02769 25-607); experiment: SPR 25C pH 6.0 and 7.4
Experimental: (§3) The binding specificity of the '029, '761 and '767 clones to VISTA and to other high pI proteins was evaluated by SPR at neutral and acidic pH using a Biacore® T100 instrument (GE Healthcare). Protein A (ThermoFisher Scientific catalog #21181) was diluted to 20 ug/ml in 10 mM sodium acetate pH 4.5 and immobilized onto flow cells of a CM3 biosensor following the manufacturer's amine coupling protocol (GE Healthcare), targeting 800 RU immobilization density of Protein A per flow cell. SPR experiments were conducted at 25° C. using PBST (137 mM sodium chloride, 2.7 mM potassium chloride, 10 mM phosphate buffer, 0.05% Tween 20) running buffer at pH 7.4 and 6.0. Antibodies (formatted as IgG1.3 antibodies) were diluted to 50 nM in PBST pH 7.4, and were captured across active biosensor flow cells at 5 ul/min for 60 seconds. […] Two 15 second injections of 10 mM glycine pH 1.5 were used to regenerate the Protein A capture surface between assay cycles. Reference flow cell and 0 nM blank-subtracted sensorgrams were inspected using Biacore® T200 Evaluation Software v.2.0. The results are shown in […]

[16] = target: avidin (ThermoFisher Scientific catalog #21128) (UniProt P02701 25-152); experiment: SPR 25C pH 6.0 and 7.4
Experimental: as §3

Chain of BSA (Calbiochem catalog #126593) (P02769 25-607 limits assumed): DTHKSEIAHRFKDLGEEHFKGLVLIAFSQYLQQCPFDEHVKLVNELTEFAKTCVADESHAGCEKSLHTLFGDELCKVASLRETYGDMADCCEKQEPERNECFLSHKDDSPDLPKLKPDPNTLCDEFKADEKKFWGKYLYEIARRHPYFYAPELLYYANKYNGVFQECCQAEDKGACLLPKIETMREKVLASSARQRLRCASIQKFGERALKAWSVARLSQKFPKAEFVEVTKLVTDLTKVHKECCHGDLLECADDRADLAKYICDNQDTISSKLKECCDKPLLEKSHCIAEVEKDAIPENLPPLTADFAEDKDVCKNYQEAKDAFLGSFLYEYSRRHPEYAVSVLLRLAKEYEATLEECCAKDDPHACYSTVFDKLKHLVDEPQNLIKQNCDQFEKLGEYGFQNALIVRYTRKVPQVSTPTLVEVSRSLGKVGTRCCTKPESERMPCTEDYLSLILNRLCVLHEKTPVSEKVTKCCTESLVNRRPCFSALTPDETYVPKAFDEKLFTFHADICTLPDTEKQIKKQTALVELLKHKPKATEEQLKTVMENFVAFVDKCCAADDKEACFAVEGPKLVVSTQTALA
Chain of avidin (ThermoFisher Scientific catalog #21128) (P02701 25-152 limits assumed): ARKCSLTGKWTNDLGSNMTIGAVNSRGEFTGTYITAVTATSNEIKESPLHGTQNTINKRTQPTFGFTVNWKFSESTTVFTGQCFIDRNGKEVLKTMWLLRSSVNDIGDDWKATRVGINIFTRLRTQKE

B1: P1-072315 (41F11_VH_T28P/Y50W/S55E/L96E/Y100E VK_A64G) (antibody, V domains shown)
VH: QVQLVESGGGLVKPGGSLRLSCAASGFPFSDYYMSWIRQAPGKGLEWVSWISNSGEPIYYADSVKGRFTISRDNAKNSLYLQMNSLRAEDTAVYYCARDEPGWEFDLWGRGTLVTVSS
VL: EIVLTQSPATLSLSPGERATLSCRASQSVSSYLAWYQQKPGQAPRLLIYDASNRATGIPARFSGSGSGTDFTLTISSLEPEDFAVYYCQQRNNWPRTFGQGTKVEIK
notes: Same variable-region description as P1-065333 under another ID; also called P1-072315-1
Question: What does the source list for B1?
Answer: Kd [1]: 0.35 nM; koff [1]: 0.0015 s⁻¹; kon [1]: 4.2e+06 M⁻¹ s⁻¹; Kd [2]: 0.6 nM; koff [2]: 0.0016 s⁻¹; kon [2]: 2.7e+06 M⁻¹ s⁻¹; Kd [3]: 2.5 nM; koff [3]: 0.00079 s⁻¹; kon [3]: 320000 M⁻¹ s⁻¹; Kd [4]: 1.9 nM; koff [4]: 0.00068 s⁻¹; kon [4]: 350000 M⁻¹ s⁻¹

B2: P1-065333 (41F11_VH_T28P/Y50W/S55E/L96E/Y100E VK_A64G) (antibody, human IgG1, kappa, V domains shown)
VH: B1 VH
VL: EIVLTQSPATLSLSPGERATLSCRASQSVSSYLAWYQQKPGQAPRLLIYDASNRATGIPARFSGSGSGTDFTLTISSLEPEDFAVYYCQQRNNWPRTFGQGTKVEIKR
notes: IgG1.3; also called P1-065333-1; VISTA.4 pH-independent progeny
Question: What does the source list for B2?
Answer: Kd [5]: 1.9 nM; kd improvement vs parent [5]: 1 fold; koff [5]: 0.00093 s⁻¹; kon [5]: 480000 M⁻¹ s⁻¹; Kd [6]: 3.2 nM; koff [6]: 0.00078 s⁻¹; kon [6]: 240000 M⁻¹ s⁻¹; Kd [7]: 0.56 nM; koff [7]: 0.0015 s⁻¹; kon [7]: 2.7e+06 M⁻¹ s⁻¹; KD ratio (pH 7.4/pH 6.0) [8]: 7.3; pH 6.0/7.4 KD [9]: 0.2; pH 6.0/7.4 kd [9]: 1.4; Kd [10]: 2.2 nM; koff [10]: 0.00094 s⁻¹; kon [10]: 430000 M⁻¹ s⁻¹; Kd [11]: 3.17 nM; koff [11]: 0.000883 s⁻¹; kon [11]: 278000 M⁻¹ s⁻¹; Kd [12]: 0.434 nM; koff [12]: 0.00142 s⁻¹; kon [12]: 3.28e+06 M⁻¹ s⁻¹; Kd [13]: 0.47 nM; koff [13]: 0.0018 s⁻¹; kon [13]: 3.8e+06 M⁻¹ s⁻¹; Kd [14]: 0.38 nM; kd improvement vs parent [14]: 81.7 fold; koff [14]: 0.0013 s⁻¹; kon [14]: 3.4e+06 M⁻¹ s⁻¹

B3: P1-070976 (41F11_VH_T28P/Y50W/S55E/D95H/L96E/P97E/Y100E; Vk_A64G) (antibody, human IgG1, kappa, V domains shown)
VH: B1 VH with D99H, P101E
VL: B2 VL
notes: IgG1.3; also called P1-070976-7; acidic pH selective VISTA.4 progeny
Question: Which results are given for B3?
Answer: Kd [7]: 23 nM; koff [7]: 0.0026 s⁻¹; kon [7]: 110000 M⁻¹ s⁻¹; Kd [1]: 13 nM; koff [1]: 0.0028 s⁻¹; kon [1]: 230000 M⁻¹ s⁻¹; Kd [2]: 24 nM; koff [2]: 0.0038 s⁻¹; kon [2]: 160000 M⁻¹ s⁻¹; Kd [13]: 15 nM; koff [13]: 0.0028 s⁻¹; kon [13]: 190000 M⁻¹ s⁻¹; Kd [3]: 2300 nM; koff [3]: 0.14 s⁻¹; kon [3]: 61000 M⁻¹ s⁻¹; Kd [4]: 5900 nM; koff [4]: 0.026 s⁻¹; kon [4]: 4400 M⁻¹ s⁻¹

B4: P1-071799 (P1-070976_H95D) (antibody, human IgG1, kappa, V domains shown)
VH: B1 VH with P101E
VL: B2 VL
notes: IgG1.3
Question: Which Kd [7] does the source give for B4 here?
Answer: 15 nM

Question: What about the koff [7] of the same binder?
Answer: 0.027 s⁻¹

Question: What about the kon [7] of the same binder?
Answer: 1.7e+06 M⁻¹ s⁻¹

B5: P1-071801 (P1-070976_E97P) (antibody, human IgG1, kappa, V domains shown)
VH: B1 VH with D99H
VL: B2 VL
notes: IgG1.3
Question: Which Kd [6] does the source give for B5 here?
Answer: 21 nM

Question: And the koff [6]?
Answer: 0.00061 s⁻¹

Question: And the kon [6]?
Answer: 29000 M⁻¹ s⁻¹

Question: What about the Kd [7] of the same binder?
Answer: 3.5 nM

Question: What about the koff [7] of the same binder?
Answer: 0.0016 s⁻¹

Question: And the kon [7]?
Answer: 460000 M⁻¹ s⁻¹

B6: VISTA.4 A64G (41F11 Vk:A64G) (antibody, human IgG1, kappa, V domains shown)
VH: B1 VH with P28T, W50Y, E56S, E100L, E104Y
VL: B2 VL
notes: IgG1.3; also called P1-061520; P1-061520-10
Question: B6 was tested. Which Kd [6] did it give?
Answer: 4 nM

Question: And the koff [6]?
Answer: 0.00091 s⁻¹

Question: And the kon [6]?
Answer: 230000 M⁻¹ s⁻¹

Question: What about the Kd [7] of the same binder?
Answer: 40 nM

Question: What about the koff [7] of the same binder?
Answer: 0.033 s⁻¹

Question: What about the kon [7] of the same binder?
Answer: 830000 M⁻¹ s⁻¹

Question: What about the Kd [10] of the same binder?
Answer: 1.7 nM

Question: What about the koff [10] of the same binder?
Answer: 0.00093 s⁻¹

Question: What about the kon [10] of the same binder?
Answer: 550000 M⁻¹ s⁻¹

Question: And the Kd [11]?
Answer: 4.48 nM and 4.19 nM

Question: What about the koff [11] of the same binder?
Answer: 0.00103 s⁻¹ and 0.00105 s⁻¹

Question: What about the kon [11] of the same binder?
Answer: 231000 M⁻¹ s⁻¹ and 250000 M⁻¹ s⁻¹

Question: And the Kd [12]?
Answer: 17.4 nM and 16.6 nM

Question: What about the koff [12] of the same binder?
Answer: 0.0403 s⁻¹ and 0.0395 s⁻¹

Question: What about the kon [12] of the same binder?
Answer: 2.31e+06 M⁻¹ s⁻¹ and 2.37e+06 M⁻¹ s⁻¹

Question: What about the Kd [13] of the same binder?
Answer: 38 nM

Question: What about the koff [13] of the same binder?
Answer: 0.086 s⁻¹

Question: What about the kon [13] of the same binder?
Answer: 2.3e+06 M⁻¹ s⁻¹

B7: P1-068767.IgG1.3 (antibody, V domains shown)
VH: EVQLVESGGGLVQPGKSLRLSCAASGFTLEDYAMHWVRQAPGKGLEWVSGIDWNSENIGYADSVKGRFTISRDNAKNSLYLQMNSLRTEDTALYYCAKVPGYSGGWIDAEDDWGQGTMVTVSS
VL: not shown
notes: also called P1-068767 hIgG1.3f; VISTA.18
Question: Does B7 bind [15]?
Answer: no binding (tested: <=10 RU, 100-10 nM)

Question: Does B7 bind [16]?
Answer: no binding (tested: <=10 RU, 100-10 nM)

Source: US20220073617A1 (Five Prime, published 2022)
